This is an account of results in IntAct's records for PubMed 29106382.

To fix the notation:
B1: Angiopoietin-1 (Homo sapiens), Q15389 (parent)
chain: MTVFLSFAFLAAILTHIGCSNQRRSPENSGRRYNRIQHGQCAYTFILPEHDGNCRESTTDQYNTNALQRDAPHVEPDFSSQKLQHLEHVMENYTQWLQKLENYIVENMKSEMAQIQQNAVQNHTATMLEIGTSLLSQTAEQTRKLTDVETQVLNQTSRLEIQLLENSLSTYKLEKQLLQQTNEILKIHEKNSLLEHKILEMEGKHKEELDTLKEEKENLQGLVTRQTYIIQELEKQLNRATTNNSVLQKQQLELMDTVHNLVNLCTKEGVLLKGGKREEEKPFRDCADVYQAGFNKSGIYTIYINNMPEPKKVFCNMDVNGGGWTVIQHREDGSLDFQRGWKEYKMGFGNPSGEYWLGNEFIFAITSQRQYMLRIELMDWEGNRAYSQYDRFHIGNEKQNYRLYLKGHTGTAGKQSSLILHGADFSTKDADNDNCMCKCALMLTGGWWFDACGPSNLNGMFYTAGQNHGKLNGIKWHYFKGPSYSLRSTTMMIRPLDF

The variants in this assay derive from B1. To be noted: with tie2_human TEK.
For MTVFLSFAFLAAILTHIGCSNQRRSPENSGRRYNRIQHGQCAYTFILPEHDGNCRESTTDQYNTNALQRDAPHVEPDFSSQKLQHLEHVMENYTQWLQKLENYIVENMKSEMAQIQQNAVQNHTATMLEIGTSLLSQTAEQTRKLTDVETQVLNQTSRLEIQLLENSLSTYKLEKQLLQQTNEILKIHEKNSLLEHKILEMEGKHKEELDTLKEEKENLQGLVTRQTYIIQELEKQLNRATTNNSVLQRQQLELMDTVHNLVNLCTKEGVLLKGGKREEEKPFRDCADVYQAGFNKSGIYTIYINNMPEPKKVFCNMDVNGGGWTVIQHREDGSLDFQRGWKEYKMGFGNPSGEYWLGNEFIFAITSQRQYMLRIELMDWEGNRAYSQYDRFHIGNEKQNYRLYLKGHTGTAGKQSSLILHGADFSTKDADNDNCMCKCALMLTGGWWFDACGPSNLNGMFYTAGQNHGKLNGIKWHYFKGPSYSLRSTTMMIRPLDF [K249R], the “effect of a mutation on the interaction” value is “with no effect”.
